# Reference: PMC9106845 (2022)
# T1: A02_YLQ peptide on HLA-A*02:01 (human)
# T1 peptide: YLQPRTFLL
# B1: 839 (TCR)
# alpha TRAV12-1 TRAJ47 CDR3: CVVNRADKLVF
# beta TRBV7-9 TRBJ2-2 CDR3: CASSDANTGELFF
# Biological target: T1, A02_YLQ peptide on HLA-A*02:01
# Test: multimer staining
binder,measurement,value
B1,binding result,recognises
